Common to all, as to test: cryo-EM structure
The target in assay [1] is StrepII-tagged Wu1 S (soluble SARS-CoV-2 Wuhan-Hu-1 spike, 6P version) (SARS-CoV-2) (UniProt P0DTC2).
In assay [2] the target is His-tagged BA.1 S (soluble SARS-CoV-2 Omicron BA.1 spike, 6P version) (SARS-CoV-2) (UniProt P0DTC2).
For assay [3], the target named is D7324-tagged Delta S (soluble SARS-CoV-2 Delta spike, 6P version) (SARS-CoV-2) (UniProt P0DTC2).

Substance “StrepII-tagged Wu1 S (soluble SARS-CoV-2 Wuhan-Hu-1 spike, 6P version) (from UniProt P0DTC2 14-1273) (natural protein)” yielded a stoichiometry N in assay [1] of 3. “His-tagged BA.1 S (soluble SARS-CoV-2 Omicron BA.1 spike, 6P version) (from UniProt P0DTC2 14-1273) (natural protein)” gave a stoichiometry N in assay [2] of 3. The substance “D7324-tagged Delta S (soluble SARS-CoV-2 Delta spike, 6P version) (from UniProt P0DTC2 14-1273) (natural protein)” gave a stoichiometry N in assay [3] of 3.

The record behind these values is paper PMC13132547.
